Broadly, the stoichiometry N is a count of units in the complex or per binding partner.

In article doi:10.1101/2024.11.08.622755 one finds stoichiometry N data, which are given here for two substances.

For experiment [1], the target named is Nonlabens marinus rhodopsin 3 (NM-R3), chloride ion-pumping rhodopsin clade (Nonlabens marinus S1-08T). Briefly: cryo-EM structure.
For experiment [2], the target named is Nonlabens marinus rhodopsin 1 (NM-R1), proteorhodopsin clade (Nonlabens marinus S1-08T). The experiment in a line: cryo-EM structure.

“Nonlabens marinus rhodopsin 3 (NM-R3), chloride ion-pumping rhodopsin clade (natural protein)”: the stoichiometry N in experiment [1] was 5.
Substance “Nonlabens marinus rhodopsin 1 (NM-R1), proteorhodopsin clade (natural protein)” came in with a stoichiometry N in experiment [2] of 5.
